The test system of test [1] is cultured monkey corneal endothelial cell. In words: Cell density measurement (Konan KSS-400EB) after R-spondin 1 addition. It counts as cell-based, cynomolgus monkey. The settings on record: 10 ng/ml or 50 ng/ml R-spondin 1; 48 hours after addition. As for the experimental part:
(§1) A cultured monkey corneal endothelial cell (Lot. 20111222-4 P2) was treated with 0.05% trypsin at 37° C. for 10 minutes, peeled from a T-25 flask, and suspended in a culture medium (10% FBS+bFGF/DMEM). The number of cells was counted, and the suspension was adjusted with a culture medium to 3×10^4 cells/300 μl. Cells were seeded on a Lab-TekII chamber Slide (8 well) coated with FNS, in 300 μl/well.
At 7 days after cell seeding, a medium was exchanged with a medium containing R-spondin 1 (0, 10, 50 ng/ml) in the state where cells were almost confluent, and at 24 hours after addition of R-spondin 1, Click-iT EdU was added so that the final concentration was 10 μM. (Although a manual of Kit recommended that a half of a medium was exchanged, a medium was not exchanged) After additional 24 hours (48 hours after addition of R-spondin 1), cells were fixed with 4% PFA/PBS, EdU was detected according to a manual of Kit, and the EdU-positive cell rate was counted (FIGS. 8 and 9).
A chamber slide after staining was photographed with a phase contrast microscope, and the cell density was measured using the corneal endothelial cell density calculating software, Konan Storage System KSS-400EB (FIG. 10).

Test [2] concerns human corneal endothelial cell in the confluent state. In words: Cell density of confluent human corneal endothelial cells cultured with R-spondin 1. The settings on record: R-spondin 1 10 ng/ml, 566.8 at addition. It counts as cell-based. The source says:
• (Source and culture method): As a human corneal endothelial cell, a corneal endothelial cell was mechanically peeled together with a basal membrane from a cornea for research, purchased from Seattle Eye Bank, and the corneal endothelial cell was peeled and recovered from the basal membrane using collagenase (ROCHE catalog No.: 10 103 586 001), and was subjected to primary culturing. As a medium, for human, Opti-MEM I Reduced-Serum Medium, Liquid (INVITROGEN catalog No.: 31985-070), 8% fetal bovine serum (FES) (BIOWEST, catalog No.: S1820-500), […] CaCl2.2H2O (SIGMA catalog No.: C7902-500G), 0.08% chondroitin sulfate (SIGMA catalog No.: C9819-5G), 20 μg/ml ascorbic acid (SIGMA catalog No.: A4544-25G), 50 μg/ml gentamicin (INVITROGEN catalog No.: 15710-064) and 5 ng/ml EGF (INVITROGEN catalog No.: PHG0311), acclimated for a 3T3 feeder cell, were used.
After subculturing, at the time point where cells reached confluent and were cultured for 2 weeks or longer, and no clear change in the corneal endothelium density was recognized, R-spondin 1 was added into a medium in a concentration of 10 ng/ml, and culture was continued. Observation of cell morphology was performed with a phase contrast microscope, and the cell density was calculated.

In test [3] the test system is cytosol β-catenin and p-LRP6. In words: Western blotting of Wnt/β-catenin-associated molecules in human CEC with or without RSPO1. The class given is cell-based. The source says:
For Western blotting, the following rabbit polyclonal antibodies: anti-LRP6, p-LRP6 (Cell Signaling Technology, Inc., Beverly, Mass.), as well as the following mouse monoclonal antibodies: β-catenin (BD Biosciences) and β-actin (Sigma-Aldrich, St. Louis, Mo.); were used. As a secondary antibody, HRP-labeled anti-rabbit or mouse IgG (GE Healthcare, Piscataway, N.J.) was used. Recombinant human SHH, purmorphamine, cyclopamine and RSpos were purchased from R&D Systems Inc. (Minneapolis, Minn.).
Cultured human CEC was washed with PBS, and then, rinsed with a lysis buffer containing PBS, 1% TRITON™ X-100, 0.5 M EDTA, phosphatase inhibitor cocktail 2 (Sigma-Aldrich) and […] (Roche). Detection of activated β-catenin (non-membrane-bound type) was implemented according to the protocol previously reported [Aghib D F et al., Exp Cell Res., 1995; 218: 359-369]. In brief, a cell lysate treated with Con A Sepharose™ 4B (GE Healthcare) was incubated at 4° C. for 1 hour. After centrifugation at 4° C. for 10 minutes, the supernatant was transferred into a new tube, Con A Sepharose™ was added to each tube, and the resultant was incubated at 4° C. for 1 hour. Finally, after simple centrifugation, the supernatant was transferred into a new tube, and the protein concentration was determined.
Then, the protein was separated by SDS-PAGE, and transferred to a PVDF membrane. […]
Background: In western blotting, separated proteins are transferred to a membrane and probed.

The subject of test [4] is cultured monkey corneal endothelial cell. The experiment in a line: Detection of proliferating cells with Click-iT EdU Imaging Kit after R-spondin 1 addition. The class given is cell-based, cynomolgus monkey. Conditions: 10 ng/ml or 50 ng/ml R-spondin 1; almost confluent cells; 48 hours after addition. As for the experimental part: After addition of an R-spondin 1 protein to a cultured monkey corneal endothelial cell and culturing for 48 hours, a cell during proliferation was detected using the Click-iT Edu imaging Kit, and the positivity rates of EdU and the cell densities of a control cell and a cell to which R-spondin 1 was added were compared.
EdU (5-ethynyl-2′-deoxyuridine) is a modified nucleic acid taken into DNA at a DNA synthesis phase by a chemical reaction, and is widely used in place of a conventional BrdU for identifying a DNA synthesis phase cell. By measuring the positivity rate of EdU, the proliferative cell rate in a cultured cell is found.
as §1
At 7 days after cell seeding, a medium was exchanged with a medium containing R-spondin 1 (0, 10, 50 ng/ml) in the state where cells were almost confluent, and at 24 hours after addition of R-spondin 1, Click-iT EdU was added so that the final concentration was 10 μM. […]

“Also recorded” adds a separate entry of the source.

B1: R-spondin 1: Recombinant Human R-spondin 1 (R&D Cat. 4645-RS); ligand of GPR49/LGR5 (protein, listed as Homo sapiens)
chain: MRLGLCVVALVLSWTHLTISSRGIKGKRQRRISAEGSQACAKGCELCSEVNGCLKCSPKLFILLERNDIRQVGVCLPSCPPGYFDARNPDMNKCIKCKIEHCEACFSHNFCTKCKEGLYLHKGRCYPACPEGSSAANGTMECSSPAQCEMSEWSPWGPCSKKQQLCGFRRGSEERTRRVLHAPVGDHAACSDTKETRRCTVRRVPCPEGQKRRKGGQGRRENANRNLARKESKEAGAGSRRRKGQQQQQQQGTVGPLTSAGPA
As to B1, in test [1], the “cell density as compared with a control” value was found to be 1.3 times. Also, the “corneal endothelial cell density” value in test [2] (7th day) is reported as “about 695 cells/mm^2”; in test [2] (after 14 days), “about 875 cells/mm^2”; in test [2] (after 21 days, control without R-spondin 1 535.4) it was 995.8 cells/mm^2. Further, the “protein level of cytosol β-catenin and p-LRP6” value in test [3] (cell transfected with GPR49/LGR5 and treated with RSPO1 (50 ng/ml), as compared with NT cell) is on record as “clearly decreased”; in test [3] (cells transfected with NT and GPR49/LGR5, treated with RSPO1 (50 ng/ml), as compared with cell group not treated with RSPO1) it was “decreased”. For the same molecule, the “EdU-positive cell/DAPI as compared with a control” value in test [4] is listed as “increased two times; also recorded: increased twice”.

Source of the values: US9616101B2, “Differentiation marker and differentiation control of eye cell” (Kyoto Prefectural Public University Corporation, priority 2012, dated 2017).
